Consider 14 molecules from US20120201826A1 (NOV IMMUNE S A, published 2012).

B1: H11 scFv (scFv)
chain: QVQLVQSGAEVKKPGSSVKVSCKASGGISDNYALSWVRQAPGQGLEWMGGFIPLVDTTNYAQRFQGRLTITADDSMSTVYMELRSLRSDDTAMYYCAREQVAVGPGPTSDRGPDGLDVWGQGTMVTVSSQSVLTQPSSVSGAPGHRVTISCTGSNSNLGADYDVHWYQQLPGSAPKLLIYDNNIRPSGVPARFSGSKSGTSASLAITGLQAEDEADYYCQSYDTGLTSSDVIFGGGTKLTVL
B2: CG11 scFv (scFv)
chain: QVQLVQSGTEVKKPGATVNVSCKISGHLFTDYYIHWVQQAPGKGLEWVGLIDPKDGEIQYAEKFQARVTITADTSTDTVYMELNSLRSEDTAVYYCATEVLSGIRVFPFDPWGQGTLVTVSSQSVLTQPPSVSGAPGQRVTISCTGSSSNIGAGYDVYWYQQFPGKAPKLLIYDTNNRPPGVPDRFSGSKSGTSASLAISGLQTEDEADYYCQSYDIALSNSNVVFGGGTKLTVL
B3: A5 antibody, IgG1 format (antibody, V domains shown)
VH: QVQLVQSGAEVKKPGASVKVSCKVSGYALSELSIHWVRQAPGKGLEWMSYIDPEDGEPIYAQKFQGRATMTEDSSTDTAYMEMGSLTSDDTAVYYCAGVTGSTSDAFDLWGRGTLVTVSS
VL: SYVLTQDPSVSVAPGQTARITCGGANLWGLGVHWYQQKSGQAPVLVVSDNSDRASGIPERFSGSNSGTTATLTLSRVEVGDEADYYCQVWDSSSDHWVFGGRTKLTVL
B4: E6 antibody, IgG1 format (antibody, V domains shown)
VH: QVQLVQSGAEVEKPGASVKVSCRVSGYPLTEIAIHWVRQAPGKGLEWMGSFEPEDAEAIYAQRFQGRVTMTEETSANTAYMELSSLRSEDTAVYFCATDPYYASSGSNYMEVWGRGTLVTVSS
VL: NFMLTQPHSVSESPGKTVTISCTGSGGSISSNYVQWYRQRPGSAPSTVIYEDDQRPSGVPDRISGSIDSSSNSASLTISGLTTEDEADYYCHSYDGNNRWVFGGGTKLTVL
B5: 2D1 antibody, IgG1 format (antibody, V domains shown)
VH: QVQLVQSGAEVKKPGASVKVSCKVSGYTLNDFAMHWVRQAPGKGLEWMGGYVPEDGDTIYAQKFQGRVTMTEDTSTDTAYMELSSLRSEDTAVYYCATDPLYSGSLSYWGQGTTVTVSS
VL: SYVLTQPPSVSVAPGQTARITCGGNNIESKSVHWYQQKPGQAPVLVVYDDSDRPSGIPERFSGSNSGNTATLTISRVEAGDEADYYCQVWDSNTDHWVFGGGTKVTVL
B6: 7B5 antibody, IgG1 format (antibody, V domains shown)
VH: QVQLVQSGAEVKKPGASVKVSCKVSGYTLNDFAMHWVRQAPGKGLEWMGGYVPEDGDTIYAQKFQGRVTMTEDTSTDTAYMELSSLRSEDTAVYYCATDPLYSGSLSYWGQGTTVTVSS
VL: SYVLTQPPSVSVAPGQTARITCGGNNIESKSVHWYQQKPGQAPVLVVYDDSDRPSGIPERFSGSNSGNTATLTISRVEAGDEADYYCQVWDSGPVWWIFGGGTKLTVL
B7: 3E7 antibody, IgG1 format (antibody, V domains shown)
VH: QVQLVQSGAEVKKPGASVKVSCKVSGYTLNDFAMHWVRQAPGKGLEWMGGYVPEDGDTIYAQKFQGRVTMTEDTSTDTAYMELSSLRSEDTAVYYCATDPLYPPGLSPWGQGTTVTVSS
VL: SYVLTQPPSVSVAPGQTARITCGGNNIESKSVHWYQQKPGQAPVLVVYDDSDRPSGIPERFSGSNSGNTATLTISRVEAGDEADYYCQVWDSNTDHWVFGGGTKVTVL
B8: 6A8 antibody, IgG1 format (antibody, V domains shown)
VH: QVQLVQSGAEVKKPGASVKVSCKVSGYTLNDFAMHWVRQAPGKGLEWMGGYVPEDGDTIYAQKFQGRVTMTEDTSTDTAYMELSSLRSEDTAVYYCATDPLYPPGLQPWGQGTTVTVSS
VL: SYVLTQPPSVSVAPGQTARITCGGNNIESKSVHWYQQKPGQAPVLVVYDDSDRPSGIPERFSGSNSGNTATLTISRVEAGDEADYYCQVWDSNTDHWVFGGGTKVTVL
B9: 4D8 antibody, IgG1 format (antibody, V domains shown)
VH: QVQLVQSGAEVKKPGASVKVSCKVSGYTLNDFAMHWVRQAPGKGLEWMGGYVPEDGDTIYAQKFQGRVTMTEDTSTDTAYMELSSLRSEDTAVYYCATDPLYTPGLYVWGQGTTVTVSS
VL: SYVLTQPPSVSVAPGQTARITCGGNNIESKSVHWYQQKPGQAPVLVVYDDSDRPSGIPERFSGSNSGNTATLTISRVEAGDEADYYCQVWDSNTDHWVFGGGTKVTVL
B10: 5E1 antibody, IgG1 format (antibody, V domains shown)
VH: QVQLVQSGAEVKKPGASVKVSCKVSGYTLNDFAMHWVRQAPGKGLEWMGGYVPEDGDTIYAQKFQGRVTMTEDTSTDTAYMELSSLRSEDTAVYYCATDYLYIPSLSYWGQGTTVTVSS
VL: SYVLTQPPSVSVAPGQTARITCGGNNIESKSVHWYQQKPGQAPVLVVYDDSDRPSGIPERFSGSNSGNTATLTISRVEAGDEADYYCQVWDSNTDHWVFGGGTKVTVL
B11: G2 antibody, IgG1 format (antibody, V domains shown)
VH: QVQLVQSGAEVKKPGASVKVSCRASGYALTELSIHWVRQAPGKGLEWMGGFDPEDGETIYAQNFQGRVIMTEDTSTDTAYMELSSLKSEDTAVYYCATDLTGSRDSWGQGTLVTVSS
VL: QSVLTQPASVSGSPGQSITISCTGSRSDIGYYNYVSWYQQHPGKVPKLIIYDVTERPSGVSDRFSGSKSANTASLTISGLQAEDEADYYCSSFSSGDTFVVFGGGTKLTVL
B12: BG11 antibody, IgG1 format (antibody, V domains shown)
VH: QVQLVQSGAEVKKPGASVKVSCKVSGYTLTELSMHWVRQAPGKGLEWMGGFDPEDGETIYAQKFQGRVTMTEDTSTDTAYMELSSLRSEDTAVYYCATYSGSSGWWAFDIWGQGTMVTVSS
VL: SSELTQDPAVSVALGQTVRITCQGDSLRSYYASWYQQKPGQAPVLVIYGKNNRPSGIPDRFSGSSSGNTASLTITGAQAEDEADYYCQTWGTGIWVFGGGTKLTVL
B13: C10 antibody, IgG1 format (antibody, V domains shown)
VH: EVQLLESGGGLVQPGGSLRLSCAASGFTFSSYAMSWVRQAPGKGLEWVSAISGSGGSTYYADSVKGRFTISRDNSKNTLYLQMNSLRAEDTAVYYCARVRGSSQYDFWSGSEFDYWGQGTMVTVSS
VL: SYVLTQPPSVSVAPGKTASISCGGDNIGGQNVHWYQQKPGQAPVLVIYYDTDRPSGIPERFSGSNSGNTATLSISRVEAADEADYYCQVWDVDSDHPWVFGGGTKLTVL
B14: E10 antibody, IgG1 format (antibody, V domains shown)
VH: QVQLVESGGGVVQPGRSLRLSCAASGFTFSSYAMHWVRQAPGKGLEWVAVISYDGSNKYYADSVKGRFSISRDNSKNTLYLQMNSLRAEDTAVYYCARETFPHYYYYYMDVWGKGTMVTVSS
VL: SYVLTQPPSVSVAPGQTARISCGGGNFDDEGVHWYQQTPGQAPVLVVYDDTGRPSGIPERFSGSSSGNTATLTISRVEAGDEADYYCQAWDSSNDHPVFGGGTQLTVL

In one assay the target is T1, recombinant human RANTES (huRANTES, Peprotech) (human, UniProt P13501 24-91).
T1 sequence: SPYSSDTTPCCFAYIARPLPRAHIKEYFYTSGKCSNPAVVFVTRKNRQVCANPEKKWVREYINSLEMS
As to the kind of experiment: cell-based or functional assay.
For B1, the “Chemotaxis IC50 (nM); L1.2 cells expressing hCCR5, 1 nM huRANTES; scFv format” value was determined as 4.3 nM.

Turning to B2, the “Chemotaxis IC50 (nM); L1.2 cells expressing hCCR5, 1 nM huRANTES; scFv format” value is 3.6 nM.

For another assay, the target named is T1, recombinant human RANTES (huRANTES, …). The assay can be described thus: cell-based or functional assay. This is another data set of the same source.
For the molecule B3, the “Chemotaxis IC50 (nM), 1 nM huRANTES; L1.2-hCCR5 cells; IgG1 format” value (shortened to “Chemotaxis IC50 (nM), 1 nM huRANTES”) amounted to 13.2 nM.

Regarding B4, the “Calcium Flux IC50 (nM), 10 nM rhuRANTES; L1.2-hCCR5 cells; IgG1 format” value came to 12.7 nM and the “Chemotaxis IC50 (nM), 1 nM huRANTES” value was 14 nM.

With B5, the “Chemotaxis IC50 (nM), 0.2 nM huRANTES; L1.2-hCCR5 cells; IgG1 format” value (shortened to “Chemotaxis IC50 (nM), 0.2 nM huRANTES”) is 1.3 nM and the “Chemotaxis IC50 (nM), 1 nM huRANTES” value stood at 1.7 nM.

Consider B6, for which the “Chemotaxis IC50 (nM), 0.2 nM huRANTES” value was 0.31 nM and the “Chemotaxis IC50 (nM), 1 nM huRANTES” value was 1.1 nM.

In the case of B7, the “Chemotaxis IC50 (nM), 0.2 nM huRANTES” value was found to be 0.25 nM and the “Chemotaxis IC50 (nM), 1 nM huRANTES” value came to 0.68 nM.

In the case of B8, the “Chemotaxis IC50 (nM), 0.2 nM huRANTES” value was found to be 0.31 nM and the “Chemotaxis IC50 (nM), 1 nM huRANTES” value turned out to be 0.74 nM.

Regarding B9, the “Chemotaxis IC50 (nM), 0.2 nM huRANTES” value was determined as 0.22 nM and the “Chemotaxis IC50 (nM), 1 nM huRANTES” value was 1.16 nM.

Regarding B10, the “Chemotaxis IC50 (nM), 0.2 nM huRANTES” value turned out to be 0.25 nM and the “Chemotaxis IC50 (nM), 1 nM huRANTES” value came to 0.82 nM.

With B11, the “Chemotaxis IC50 (nM), 1 nM huRANTES” value came to 18.4 nM.

On to B12, for which the “Calcium Flux IC50 (nM), 10 nM rhuRANTES; L1.2-hCCR5 cells; IgG1 format” value turned out to be 7.7 nM and the “Chemotaxis IC50 (nM), 1 nM huRANTES” value was 29 nM.

Turning to B13, the “Chemotaxis IC50 (nM), 1 nM huRANTES” value was 17 nM.

As for B14, the “Chemotaxis IC50 (nM), 1 nM huRANTES” value is 16 nM.
